This note sets out measurements from the supplement of paper PMC10567573.

A short description of this series: protein stability index of a GFP-peptide fusion (GPS, HEK-293T) (PSI 1-6); higher = more stable.
Setting [1] is: treatment: DMSO, c terminus: a fixed tail appended.
[2] abbreviates: treatment: MLN4924 1 uM, 8 h, c terminus: a fixed tail appended.

± gives the standard deviation.
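Note: 24-mer peptide tiles fused after GFP, lentivirally expressed, FACS-sorted into six equal bins by GFP/DsRed ratio, decoded by Illumina sequencing, PSI is the read-weighted mean bin number.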

Regarding EYVPGGELFSYLRNRGRFSSTTGL [PRKX], the protein stability index by setting is: under setting [1], 2.53 ± 0.18; under setting [2], 2.82 ± 0.27.
The matching figures for AAGEPLECPTCGHSYNVTQRRPRV [RNF208]: 3.79 ± 0.16 and 4.18 ± 0.21.
Regarding LVEETSCQQNMIQELIETNQQLRN [CEP70], the protein stability index by setting is: under setting [1], 4.3 ± 0.24; under setting [2], 4.41 ± 0.3.
For PKPDRLLVLKVLWNDFLMCYSSRP [SLC19A2], the protein stability index by setting is: under setting [1], 2.89 ± 0.2; under setting [2], 3.08 ± 0.46.
Turning to SNLHRHQRTHTGEKPYKCPECGEI [ZNF263], the protein stability index runs as follows: under setting [1], 4.22 ± 0.41; under setting [2], 4.53 ± 0.22.
As to LDEIPDDEDLDLIPPKSVNPTCMC [FAM219A], the protein stability index turned out to be 5.07 ± 0.16 under setting [1] and 5.16 ± 0.31 under setting [2].
As for TVVPLDDATQEYKEKLQKCLEPLE [TRIM39], the protein stability index under setting [1] came to 5.27 ± 0.13 and the protein stability index under setting [2] is 5.22 ± 0.21.
With GSRMMAVAALVVNFSQPVAGRPSL [NLN], the protein stability index is, setting by setting: under setting [1], 3.1 ± 0.68; under setting [2], 2.56 ± 1.2.
As to HTSVVCYLLDYPNNLLSAPPPDVT [ANKRD17], the protein stability index runs as follows: under setting [1], 2.46 ± 0.39; under setting [2], 2.26 ± 0.44.
Consider PEPPAAVDFLEPDSGTCPEVDEEG [FCHO1], for which the protein stability index under setting [1] was 5.48 ± 0.26 and the protein stability index under setting [2] stood at 5.54 ± 0.21.
Consider MATRSSDWLRRPLGEDNQPETQLF [TLE6], for which the protein stability index was determined as 3.91 ± 0.1 under setting [1] and 3.87 ± 0.1 under setting [2].
For KPYACDECAKAFSRSAILIQHRRT [ZNF396] the same measures were 2.12 ± 0.11 and 2.37 ± 0.19.
IFSFGQLPLALVTWVPMFLSTLLA [SOAT2] returned a protein stability index under setting [1] of 2.9 ± 0.43 and a protein stability index under setting [2] of 2.72 ± 0.56.
Regarding STMLGVFREDPKTREEFLTLIRS [GCH1], the protein stability index was 2.38 ± 0.64 (treatment: DMSO, c terminus: native) and 2.84 ± 0.34 (treatment: MLN4924 1 uM, 8 h, c terminus: native).
With YGYNNVVTIPAGATHILVRQQGNP [ADAMTS4], the protein stability index was determined as 2.53 ± 0.13 under setting [1] and 2.72 ± 0.34 under setting [2].
Consider KVPSEAPSPMPTHRSYLGPGSTSP [SLC6A17], for which the protein stability index was determined as 4.66 ± 0.069 under setting [1] and 4.71 ± 0.32 under setting [2].
Turning to FSDHTFRHYAYLRDSLSHLVPALR [INTS4], the protein stability index stood at 2.27 ± 0.18 under setting [1] and 2.36 ± 0.2 under setting [2].
PADSFESPLTLAACGGHVELAALL [ANKRD17]: the protein stability index reads like this: under setting [1], 2.87 ± 0.32; under setting [2], 3.14 ± 0.28.
Consider MAAAEPSPRRVGFVGAGRMAGAIA [PYCR3], for which the protein stability index runs as follows: under setting [1], 2.97 ± 0.079; under setting [2], 3.38 ± 0.073.
Take YVPEKVKKAEKKLEENPYDLDAWS [CSTF3]: the protein stability index is, setting by setting: under setting [1], 3.06 ± 0.62; under setting [2], 3.26 ± 0.87.
Turning to TATMKDLEAEVKDTTRVENLIKSE [R3HDM1], the protein stability index was 5.36 ± 0.17 under setting [1] and 5.46 ± 0.23 under setting [2].
For NERDSSEPGNFIPLFTPQSPVTAT [CDC25A], the protein stability index by setting is: under setting [1], 4.65 ± 0.48; under setting [2], 4.65 ± 0.33.
For the sequence AMFLGDAAAHWYGGAEMRTQHWPI [MYORG], the protein stability index was 2.41 ± 0.81 under setting [1] and 2.17 ± 0.25 under setting [2].
The matching figures for YPVGRFPSLHVVKVLLDCGADPDS [FEM1A]: 2.12 ± 0.17 and 2.38 ± 0.51.
TIKSLSAELLKANEIIKKLQGDLK [SASS6]: the protein stability index is, setting by setting: under setting [1], 2.16 ± 0.48; under setting [2], 2.37 ± 0.36.
For IKIIKNKKAFLNQAQIELRLLELM [DYRK1B] the same measures were 2.75 ± 0.47 and 2.6 ± 0.43.
Turning to RTRRLGNMKNGANDVKHHRWFRSV [PRKX], the protein stability index runs as follows: under setting [1], 3.17 ± 0.39; under setting [2], 3.14 ± 0.38.
Consider RKRKQSGHSPARAGKQRMKEKEQE [DDIT3], for which the protein stability index reads like this: under setting [1], 5.15 ± 0.34; under setting [2], 5.51 ± 0.38.
On to HMGTNVIVANTMPTHLSNGQMSTP [HNF4A], for which the protein stability index worked out at 3.6 ± 0.18 under setting [1] and 3.66 ± 0.33 under setting [2].
